Measurements: article PMC12228687, “Harnessing protein language model for structure-based discovery of highly efficient and robust PET hydrolases” (Nature Communications, 2025)

B1: LCC (unidentified prokaryotic organism) (protein)
chain: QSNPYQRGPNPTRSALTADGPFSVATYTVSRLSVSGFGGGVIYYPTGTSLTFGGIAMSPGYTADASSLAWLGRRLASHGFVVLVINTNSRFDYPDSRASQLSAALNYLRTSSPSAVRARLDANRLAVAGHSMGGGGTLRIAEQNPSLKAAVPLTPWHTDKTFNTSVPVLIVGAEADTVAPVSQHAIPFYQNLPSTTPKVYVELDNASHFAPNSNNAAISVYTISWMKLWVDNDTRYRQFLCNVNDPALSDFRTNNRHCQ
notes: wild-type LCC (LCC-ICCG is a separate variant)
B2: KbPETase (APET-14) (Kibdelosporangium banguiense) (protein)
chain: DEIGQAPTAANITGDGSFSTSSSAIFGQSGFGGGTAYYPNTAGKYPVVAFAPGFLSDWNALNWLGPRVASWGFVVVGVNTNTPFDFPDARGDQLLAALNWAVNSAPAAVRDKADGSRRGVSGWSMGGGGTLEALAKDTTGTVKAGVPLAPWHTNKTWSKVTEPVFIIGGQNDSVAAPASHAIPFYNSLGGPKSYLERAGADHFFPTKSNGTVSRAVVSFFKRHVSADTRFTPFLCGFSGLDVSNFRSNSC
notes: predicted signal peptide (SignalP) removed; N-terminal His-tag, pET-28a(+) NdeI/NotI; E. coli BL21(DE3); Ni-NTA purified

Tests used:
purified protein [1] = substrate: CCCC(=O)Oc1ccc([N+](=O)[O-])cc1; assay: purified protein; assay type: biochemical, unidentified prokaryotic organism; details: 10 mM potassium phosphate pH 8.0 (stock buffer), 50 °C, 3 min, 0.5 µg/mL enzyme, 0.2-1.8 mM pNPB
purified protein [2] = substrate: CCCC(=O)Oc1ccc([N+](=O)[O-])cc1; assay: purified protein; assay type: biochemical, Kibdelosporangium banguiense; details: 10 mM potassium phosphate pH 8.0 (stock buffer), 50 °C, 3 min, 0.5 µg/mL enzyme, 0.2-1.8 mM pNPB

Row | Protein | Km (purified protein [1]) | kcat (purified protein [1]) | kcat/Km (purified protein [1]) | Km (purified protein [2]) | kcat (purified protein [2]) | kcat/Km (purified protein [2])
1 | B1 | 1053 ± 289 µM | 0.186 ± 0.021 s⁻¹ | 208 ± 17 M⁻¹ s⁻¹ |  |  | 
2 | B2 |  |  |  | 1040 ± 201 µM | 0.27 ± 0.021 s⁻¹ | 263 ± 31 M⁻¹ s⁻¹
